Our source for the self-aminoacylation values is the supplement of paper PMC9233669.

The subject of one series is biotinyl-Ile-oxazolone. Kind of series: self-aminoacylation, catalytic enhancement (BIO) (fold over background); higher = more active; k-Seq, kA / k0A0; sequences stand for … in GGGAAUGGAUCCACAUCUACGAAUUC…UUCACUGCAGACUUGACGAAGCUG
The essentials: (§1)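 Mutagenized RNA pools with a 21-nt variable region (0.43 μM) reacted with each biotinyl-aminoacyl-oxazolone at 2–1250 μM. Reactions ran in 50 μL HEPES/NaCl/KCl/MgCl2/CaCl2 buffer with 5% acetonitrile, pH 6.9–7.0, for 90 minutes at room temperature. Streptavidin-captured RNA was quantified by triplicate qPCR and Illumina sequencing, and per-sequence fraction reacted was fit to a pseudo-first-order model with 1000 bootstraps. Catalytic enhancement is median kA divided by the uncatalyzed rate, the low-activity peak of a bimodal Gaussian fit.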

A further series relates to biotinyl-Phe-oxazolone. Kind of series: self-aminoacylation, catalytic enhancement (BFO) (fold over background); higher = more active; k-Seq, kA / k0A0; sequences stand for … in GGGAAUGGAUCCACAUCUACGAAUUC…UUCACUGCAGACUUGACGAAGCUG
The essentials:
as §1

Another series has as its system biotinyl-Trp-oxazolone. Put plainly: self-aminoacylation, catalytic enhancement (BWO) (fold over background); higher = more active; k-Seq, kA / k0A0; sequences stand for … in GGGAAUGGAUCCACAUCUACGAAUUC…UUCACUGCAGACUUGACGAAGCUG
The essentials: as §1

The test system of another series is biotinyl-Met-oxazolone. Put plainly: self-aminoacylation, catalytic enhancement (BMO) (fold over background); higher = more active; k-Seq, kA / k0A0; sequences stand for … in GGGAAUGGAUCCACAUCUACGAAUUC…UUCACUGCAGACUUGACGAAGCUG
The essentials: as §1

The test system of a further series is biotinyl-Val-oxazolone. Kind of series: self-aminoacylation, catalytic enhancement (BVO) (fold over background); higher = more active; k-Seq, kA / k0A0; sequences stand for … in GGGAAUGGAUCCACAUCUACGAAUUC…UUCACUGCAGACUUGACGAAGCUG
The procedure, abridged: as §1

The next series deals with biotinyl-Leu-oxazolone. Kind of series: self-aminoacylation, catalytic enhancement (BLO) (fold over background); higher = more active; k-Seq, kA / k0A0; sequences stand for … in GGGAAUGGAUCCACAUCUACGAAUUC…UUCACUGCAGACUUGACGAAGCUG
The procedure, abridged:
as §1

Variants at the floor of the assay were thinned out.

As for “AUUACCCUCGUCAUCUAGUGA [Fam2.1 aminoacylation ribozyme variant]”, the self-aminoacylation in the series with biotinyl-Ile-oxazolone is 2.3; in the series with biotinyl-Phe-oxazolone, 9.86; with biotinyl-Trp-oxazolone, 4.43; in the series on biotinyl-Met-oxazolone, 3.26; in the series on biotinyl-Val-oxazolone, 2.7; with biotinyl-Leu-oxazolone, 3.57.

For the sequence “CCACACAUCAAGCAAUCGAUC [Fam1B.1 aminoacylation ribozyme variant]”, the self-aminoacylation in the series with biotinyl-Ile-oxazolone turned out to be 0.575; in the series with biotinyl-Phe-oxazolone, 0.914; in the series on biotinyl-Trp-oxazolone it was 0.513; in the series with biotinyl-Met-oxazolone, 0.439; with biotinyl-Val-oxazolone, 0.748; in the series on biotinyl-Leu-oxazolone, 0.581.

As to “CCACACUACAAACAAUCGGUC [Fam1B.1 aminoacylation ribozyme variant]”, the self-aminoacylation with biotinyl-Ile-oxazolone worked out at 0.904; in the series on biotinyl-Phe-oxazolone, 1.41; in the series with biotinyl-Trp-oxazolone it was 0.993; with biotinyl-Met-oxazolone, 0.642; in the series with biotinyl-Val-oxazolone, 0.883; with biotinyl-Leu-oxazolone, 0.652.

Consider “AUAACCCUAGUCAUCGAGUGA [Fam2.1 aminoacylation ribozyme variant]”, for which the self-aminoacylation was found to be 2.68 with biotinyl-Ile-oxazolone; 5.43 with biotinyl-Phe-oxazolone; 6.64 in the series with biotinyl-Trp-oxazolone; 5.44 with biotinyl-Met-oxazolone; 2.97 in the series with biotinyl-Val-oxazolone; 5.25 with biotinyl-Leu-oxazolone.

For the sequence “GUUACCCUGGUCAUCGAGUCA [Fam2.1 aminoacylation ribozyme variant]”, the self-aminoacylation in the series on biotinyl-Ile-oxazolone came out at 0.936; in the series on biotinyl-Phe-oxazolone it was 1.64; in the series on biotinyl-Trp-oxazolone, 1.1; with biotinyl-Met-oxazolone it was 1.26; in the series on biotinyl-Val-oxazolone, 1.46; in the series with biotinyl-Leu-oxazolone, 1.28.

On to “CUAAUUCAAACAGUCGGUCUG [Fam1A.1 aminoacylation ribozyme variant]”, for which the self-aminoacylation is 0.839 in the series with biotinyl-Ile-oxazolone; 0.62 with biotinyl-Phe-oxazolone; 0.523 in the series on biotinyl-Trp-oxazolone; 0.731 in the series with biotinyl-Met-oxazolone; 0.853 in the series with biotinyl-Val-oxazolone; 0.915 in the series with biotinyl-Leu-oxazolone.

Regarding “AUUCAACUAGUUCAUCGGGUG [Fam2.2 aminoacylation ribozyme variant]”, the self-aminoacylation in the series with biotinyl-Ile-oxazolone was determined as 1.95; in the series with biotinyl-Phe-oxazolone it was 16.8; in the series on biotinyl-Trp-oxazolone, 2.29; with biotinyl-Met-oxazolone it was 2.82; in the series with biotinyl-Val-oxazolone, 1.95; with biotinyl-Leu-oxazolone, 2.77.

For the sequence “CCACACUUAAAGCACUCGGUC [Fam1B.1 aminoacylation ribozyme variant]”, the self-aminoacylation with biotinyl-Ile-oxazolone was determined as 1.16; in the series with biotinyl-Phe-oxazolone, 0.788; in the series on biotinyl-Trp-oxazolone, 0.732; in the series with biotinyl-Met-oxazolone it was 0.856; with biotinyl-Val-oxazolone, 1.11; in the series with biotinyl-Leu-oxazolone it was 0.924.

“CUACUUCAAAAAAUCGUUCUG [Fam1A.1 aminoacylation ribozyme variant]”: the self-aminoacylation is 0.605 in the series with biotinyl-Ile-oxazolone; 1.03 in the series with biotinyl-Phe-oxazolone; 0.581 with biotinyl-Trp-oxazolone; 0.564 in the series on biotinyl-Met-oxazolone; 0.613 in the series on biotinyl-Val-oxazolone; 0.57 with biotinyl-Leu-oxazolone.

Consider “CCACACUUGAAGCAAUCCGUC [Fam1B.1 aminoacylation ribozyme variant]”, for which the self-aminoacylation worked out at 1.02 in the series on biotinyl-Ile-oxazolone; 0.745 in the series on biotinyl-Phe-oxazolone; 0.76 in the series with biotinyl-Trp-oxazolone; 0.993 in the series on biotinyl-Met-oxazolone; 1 with biotinyl-Val-oxazolone; 0.905 in the series on biotinyl-Leu-oxazolone.

Turning to “AUUCACCUAGGGCGUCGGGUG [Fam2.2 aminoacylation ribozyme variant]”, the self-aminoacylation in the series on biotinyl-Ile-oxazolone was 1.73; with biotinyl-Phe-oxazolone, 9.76; in the series on biotinyl-Trp-oxazolone, 1.83; with biotinyl-Met-oxazolone, 2.21; in the series on biotinyl-Val-oxazolone, 1.84; with biotinyl-Leu-oxazolone, 2.92.

Take “CUACUUCAAACAGUCUGUCUG [Fam1A.1 aminoacylation ribozyme variant]”: the self-aminoacylation worked out at 0.608 in the series with biotinyl-Ile-oxazolone; 0.663 with biotinyl-Phe-oxazolone; 0.337 in the series with biotinyl-Trp-oxazolone; 0.515 in the series with biotinyl-Met-oxazolone; 0.597 in the series with biotinyl-Val-oxazolone; 0.568 in the series with biotinyl-Leu-oxazolone.

In the case of “CCAGACUUCAAGCAAUCGGUC [Fam1B.1 aminoacylation ribozyme variant]”, the self-aminoacylation was 1.45 in the series with biotinyl-Ile-oxazolone; 43.9 in the series on biotinyl-Phe-oxazolone; 26 with biotinyl-Trp-oxazolone; 1.42 with biotinyl-Met-oxazolone; 1.54 with biotinyl-Val-oxazolone; 2.04 with biotinyl-Leu-oxazolone.

As for “AUUCACCUAGGUCAACGGGUA [Fam2.2 aminoacylation ribozyme variant]”, the self-aminoacylation in the series with biotinyl-Ile-oxazolone came to 1.41; in the series with biotinyl-Phe-oxazolone, 0.801; with biotinyl-Trp-oxazolone it was 1.83; in the series with biotinyl-Met-oxazolone, 1.12; in the series on biotinyl-Val-oxazolone it was 1.08; in the series with biotinyl-Leu-oxazolone, 1.29.

As for “CCACACUUCAAGCAAACUGUC [Fam1B.1 aminoacylation ribozyme variant]”, the self-aminoacylation came out at 0.424 in the series on biotinyl-Ile-oxazolone; 0.713 in the series on biotinyl-Phe-oxazolone; 0.5 with biotinyl-Trp-oxazolone; 0.371 with biotinyl-Met-oxazolone; 0.504 in the series on biotinyl-Val-oxazolone; 0.44 in the series on biotinyl-Leu-oxazolone.

With “AUCACUCUGGUCAUCGAGUGA [Fam2.1 aminoacylation ribozyme variant]”, the self-aminoacylation came out at 3.2 with biotinyl-Ile-oxazolone; 13.9 with biotinyl-Phe-oxazolone; 4.03 with biotinyl-Trp-oxazolone; 3.12 in the series on biotinyl-Met-oxazolone; 2.9 with biotinyl-Val-oxazolone; 3.85 in the series with biotinyl-Leu-oxazolone.

Consider “AUUAACCUUGGUCAUCGGGUG [Fam2.2 aminoacylation ribozyme variant]”, for which the self-aminoacylation with biotinyl-Ile-oxazolone was found to be 3.91; with biotinyl-Phe-oxazolone, 41.7; in the series with biotinyl-Trp-oxazolone, 7.04; in the series on biotinyl-Met-oxazolone, 6.37; with biotinyl-Val-oxazolone it was 4.16; with biotinyl-Leu-oxazolone, 8.28.

For the sequence “AUUAGCCUUGUCAUCGAGUGA [Fam2.1 aminoacylation ribozyme variant]”, the self-aminoacylation in the series with biotinyl-Ile-oxazolone worked out at 2.85; with biotinyl-Phe-oxazolone, 6.72; in the series on biotinyl-Trp-oxazolone, 4.07; in the series with biotinyl-Met-oxazolone it was 3.73; in the series on biotinyl-Val-oxazolone, 2.76; with biotinyl-Leu-oxazolone, 3.97.

As to “AUUACCCUAGCCAUCGAGUGA [Fam2.1 aminoacylation ribozyme variant]”, the self-aminoacylation in the series on biotinyl-Ile-oxazolone stood at 2.02; with biotinyl-Phe-oxazolone, 9; with biotinyl-Trp-oxazolone, 4.91; in the series with biotinyl-Met-oxazolone, 3.86; in the series on biotinyl-Val-oxazolone it was 2.13; in the series on biotinyl-Leu-oxazolone, 3.46.

As to “CUACUUCAAACAAUCGUUUUG [Fam1A.1 aminoacylation ribozyme variant]”, the self-aminoacylation with biotinyl-Ile-oxazolone was found to be 0.758; in the series with biotinyl-Phe-oxazolone it was 0.98; in the series on biotinyl-Trp-oxazolone, 0.576; in the series on biotinyl-Met-oxazolone it was 0.603; in the series with biotinyl-Val-oxazolone, 0.669; in the series on biotinyl-Leu-oxazolone, 0.568.

For the sequence “CUCCUUCAACCAAUCGGUCUG [Fam1A.1 aminoacylation ribozyme variant]”, the self-aminoacylation in the series with biotinyl-Ile-oxazolone was 1.11; in the series with biotinyl-Phe-oxazolone, 29.5; in the series with biotinyl-Trp-oxazolone it was 19.8; with biotinyl-Met-oxazolone, 1.1; with biotinyl-Val-oxazolone, 1.16; in the series on biotinyl-Leu-oxazolone, 1.33.
